{"source": "paper PMC6479699", "about": "“Structural and Functional Characterization of the Human Thymidylate Synthase (hTS) Interface Variant R175C, New Perspectives for the Development of hTS Inhibitors” (Molecules, 2019)", "proteins": {"B1": {"name": "His6-tag human thymidylate synthase variant R175C (enzyme, UniProt P04818 1-313, looked up)", "chain": "MPVAGSELPRRPLPPAAQERDAEPRPPHGELQYLGQIQHILRCGVRKDDRTGTGTLSVFGMQARYSLRDEFPLLTTKRVFWKGVLEELLWFIKGSTNAKELSSKGVKIWDANGSRDFLDSLGFSTREEGDLGPVYGFQWRHFGAEYRDMESDYSGQGVDQLQRVIDTIKTNPDDCRIIMCAWNPRDLPLMALPPCHALCQFYVVNSELSCQLYQRSGDMGLGVPFNIASYALLTYMIAHITGLKPGDFIHTLGDAHIYLNHIEPLKIQLQREPRPFPKLRILRKVEKIDDFKAEDFQIEGYNPHPTIKMEMAV", "modifications": "Cys195 oxidized to S-oxy-cysteine (CSX195) in all subunits of the crystal structure", "notes": "human thymidylate synthase (hTS, EC 2.1.1.45); Arg175 replaced by cysteine; In the crystal the chains were traced apart from the first 22-23 N-terminal residues and the C-terminal valine; also called HT-hTS R175C; hTS R175C; not shown: His6, N-terminal, kept"}}, "biological_target": "the molecule itself", "test": "SEC; HiLoad 16/600 Superdex 75pg column, last purification step; sample dialysed in buffer A (50 mM Tris pH 6.9, 300 mM KCl) beforehand"}
{"protein": "B1", "values": [{"measurement": "stoichiometry N", "value": 2}]}
